Laboratory results published in paper PMC9482650, “Quantitative fragmentomics allow affinity mapping of interactomes” (Nature Communications, 2022).

How the values were obtained:
Experiment in all cases: holdup assay
Parameters in all cases: key: below the threshold = too weak to quantify, mostly under pKd 3.1 to 4
FRMPD2_1, Q68DX3 = target: FRMPD2_1, Q68DX3
NHERF4_4, Q86UT5 = target: NHERF4_4, Q86UT5
GRIP1_7, Q9Y3R0 = target: T1, GRIP1_7, Q9Y3R0
T1 sequence (Q9Y3R0 999-1096, limits assumed, looked up): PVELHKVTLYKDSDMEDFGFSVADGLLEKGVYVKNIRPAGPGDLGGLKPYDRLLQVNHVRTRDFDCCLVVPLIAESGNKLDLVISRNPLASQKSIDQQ

SCRIB_2, Q14160 = target: SCRIB_2, Q14160
GOPC, Q9HD26 = target: GOPC, Q9HD26
Inadl_8, Q8NI35 = target: Inadl_8, Q8NI35
DLG4_3, P78352 = target: DLG4_3, P78352
DLG4_2, P78352 = target: DLG4_2, P78352
SCRIB_1, Q14160 = target: SCRIB_1, Q14160
DLG4_1, P78352 = target: DLG4_1, P78352
HTRA4, P83105 = target: T2, HTRA4, P83105
T2 sequence (P83105 378-476, limits assumed, looked up): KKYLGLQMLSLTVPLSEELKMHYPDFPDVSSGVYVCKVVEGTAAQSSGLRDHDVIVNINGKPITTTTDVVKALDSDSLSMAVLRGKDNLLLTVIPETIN

GORASP2, Q9H8Y8 = target: GORASP2, Q9H8Y8
DLG2_2, Q15700 = target: DLG2_2, Q15700
NHERF3_1, Q5T2W1 = target: T3, NHERF3_1, Q5T2W1
T3 sequence (Q5T2W1 4-100, limits assumed, looked up): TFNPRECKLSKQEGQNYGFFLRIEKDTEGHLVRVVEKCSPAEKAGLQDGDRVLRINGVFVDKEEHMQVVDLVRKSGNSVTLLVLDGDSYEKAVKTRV

DFNB31_3, Q9P202 = target: T4, DFNB31_3, Q9P202
T4 sequence (Q9P202 811-907, limits assumed, looked up): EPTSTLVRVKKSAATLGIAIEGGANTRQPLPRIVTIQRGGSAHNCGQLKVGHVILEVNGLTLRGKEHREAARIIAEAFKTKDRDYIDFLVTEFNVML

SNX27, Q96L92 = target: SNX27, Q96L92
DLG3_3, Q92796 = target: T5, DLG3_3, Q92796
T5 sequence (Q92796 374-475, limits assumed, looked up): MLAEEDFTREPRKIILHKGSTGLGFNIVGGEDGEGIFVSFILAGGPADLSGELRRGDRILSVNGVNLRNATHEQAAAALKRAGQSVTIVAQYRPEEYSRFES

DLG1_3, Q12959 = target: DLG1_3, Q12959
NHERF4_1, Q86UT5-2 = target: NHERF4_1, Q86UT5-2
MAGI2_5, Q86UL8 = target: MAGI2_5, Q86UL8
FRMPD4, Q14CM0 = target: FRMPD4, Q14CM0
TJP3_3, O95049 = target: T6, TJP3_3, O95049
T6 sequence (O95049 375-456, limits assumed, looked up): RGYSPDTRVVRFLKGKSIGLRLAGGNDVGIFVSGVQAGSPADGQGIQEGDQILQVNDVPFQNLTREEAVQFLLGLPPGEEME

LIMK2, P53671 = target: LIMK2, P53671
LNX1_3, Q8TBB1 = target: LNX1_3, Q8TBB1
Inadl_2, Q8NI35 = target: Inadl_2, Q8NI35
PDZD2_2, O15018 = target: T7, PDZD2_2, O15018
T7 sequence (O15018 329-429, limits assumed, looked up): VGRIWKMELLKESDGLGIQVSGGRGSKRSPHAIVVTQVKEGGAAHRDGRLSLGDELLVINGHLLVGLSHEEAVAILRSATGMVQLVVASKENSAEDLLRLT

MAGI2_3, Q86UL8 = target: MAGI2_3, Q86UL8
APBA2_1, Q99767 = target: T8, APBA2_1, Q99767
T8 sequence (Q99767 563-664, limits assumed, looked up): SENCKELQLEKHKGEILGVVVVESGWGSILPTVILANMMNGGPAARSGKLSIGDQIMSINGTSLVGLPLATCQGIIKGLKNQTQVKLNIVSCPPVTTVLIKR

LNX1_1, Q8TBB1 = target: LNX1_1, Q8TBB1
GRIP2_3, Q9C0E4 = target: GRIP2_3, Q9C0E4
MAST2, Q6P0Q8 = target: MAST2, Q6P0Q8
[1] = plain residues with an end cap or a label only (N-terminal biotin on a linker: ttds)
[2] = plain residues with an end cap or a label only (N-terminal biotin on a linker: ahx)
[3] = plain residues with an end cap or a label only (N-terminal biotin on a linker: ado-ado)

Sequence of LNX1_1, Q8TBB1 (Q8TBB1 261-371): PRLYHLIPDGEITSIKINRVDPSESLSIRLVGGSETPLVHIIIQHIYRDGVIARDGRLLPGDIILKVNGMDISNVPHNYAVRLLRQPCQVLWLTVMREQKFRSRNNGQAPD
Sequence of MAGI2_5, Q86UL8 (Q86UL8 915-1017): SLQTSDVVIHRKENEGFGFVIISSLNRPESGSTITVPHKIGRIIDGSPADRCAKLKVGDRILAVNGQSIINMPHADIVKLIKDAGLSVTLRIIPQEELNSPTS
Sequence of NHERF4_4, Q86UT5 (Q86UT5 464-550): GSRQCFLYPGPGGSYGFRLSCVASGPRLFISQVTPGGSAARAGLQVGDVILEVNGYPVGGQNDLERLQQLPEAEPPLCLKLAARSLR
Sequence of MAGI2_3, Q86UL8 (Q86UL8 600-682): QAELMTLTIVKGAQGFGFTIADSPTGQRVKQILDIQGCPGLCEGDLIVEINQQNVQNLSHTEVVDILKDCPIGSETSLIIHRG
Sequence of DLG1_3, Q12959 (Q12959 457-571): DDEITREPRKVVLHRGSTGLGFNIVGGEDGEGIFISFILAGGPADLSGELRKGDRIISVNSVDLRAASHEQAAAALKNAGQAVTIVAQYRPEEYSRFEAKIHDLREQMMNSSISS
Sequence of FRMPD2_1, Q68DX3 (Q68DX3 770-861): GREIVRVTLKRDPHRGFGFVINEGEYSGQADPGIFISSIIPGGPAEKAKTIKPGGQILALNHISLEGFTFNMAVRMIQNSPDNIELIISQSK
Sequence of LNX1_3, Q8TBB1 (Q8TBB1 500-596): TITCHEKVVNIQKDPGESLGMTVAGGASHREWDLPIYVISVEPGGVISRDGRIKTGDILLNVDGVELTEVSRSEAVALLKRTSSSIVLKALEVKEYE
Sequence of FRMPD4, Q14CM0 (Q14CM0 67-160): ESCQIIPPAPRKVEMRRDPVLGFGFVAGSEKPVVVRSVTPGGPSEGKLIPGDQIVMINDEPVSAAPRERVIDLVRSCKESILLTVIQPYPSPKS
Sequence of DLG2_2, Q15700 (Q15700 189-283): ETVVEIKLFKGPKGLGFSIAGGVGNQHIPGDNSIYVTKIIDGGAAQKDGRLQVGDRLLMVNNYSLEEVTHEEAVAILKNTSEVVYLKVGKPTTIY
Sequence of MAST2, Q6P0Q8 (Q6P0Q8 1099-1202): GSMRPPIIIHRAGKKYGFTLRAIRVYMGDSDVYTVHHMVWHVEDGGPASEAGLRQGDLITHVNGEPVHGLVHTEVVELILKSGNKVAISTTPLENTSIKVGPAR
Sequence of LIMK2, P53671 (P53671 143-248): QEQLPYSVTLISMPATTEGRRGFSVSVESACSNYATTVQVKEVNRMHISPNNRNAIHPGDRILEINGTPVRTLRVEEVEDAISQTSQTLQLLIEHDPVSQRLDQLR
Sequence of DLG4_1, P78352 (P78352 62-152): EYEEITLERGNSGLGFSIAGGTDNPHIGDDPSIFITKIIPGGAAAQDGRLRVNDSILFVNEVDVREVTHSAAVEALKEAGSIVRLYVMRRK
Sequence of SCRIB_1, Q14160 (Q14160 718-814): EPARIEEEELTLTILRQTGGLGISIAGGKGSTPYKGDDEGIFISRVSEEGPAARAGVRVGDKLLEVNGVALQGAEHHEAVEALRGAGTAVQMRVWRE
Sequence of GRIP2_3, Q9C0E4 (Q9C0E4 238-339): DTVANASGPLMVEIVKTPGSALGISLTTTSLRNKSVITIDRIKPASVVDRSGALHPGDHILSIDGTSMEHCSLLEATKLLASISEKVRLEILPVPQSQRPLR
Sequence of DLG4_3, P78352 (P78352 306-403): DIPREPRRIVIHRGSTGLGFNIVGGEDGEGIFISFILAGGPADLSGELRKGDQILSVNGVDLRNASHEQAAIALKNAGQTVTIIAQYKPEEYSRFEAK
Sequence of DLG4_2, P78352 (P78352 155-259): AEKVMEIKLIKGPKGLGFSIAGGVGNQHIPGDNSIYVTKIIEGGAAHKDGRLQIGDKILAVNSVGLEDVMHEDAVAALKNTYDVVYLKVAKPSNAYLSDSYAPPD
Sequence of Inadl_8, Q8NI35 (Q8NI35 1425-1530): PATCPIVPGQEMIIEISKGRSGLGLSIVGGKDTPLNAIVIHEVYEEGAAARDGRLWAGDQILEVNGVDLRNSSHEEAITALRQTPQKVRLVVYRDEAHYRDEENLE
Sequence of NHERF4_1, Q86UT5-2 (Q86UT5 other isoform, or with tags, fused parts or gaps): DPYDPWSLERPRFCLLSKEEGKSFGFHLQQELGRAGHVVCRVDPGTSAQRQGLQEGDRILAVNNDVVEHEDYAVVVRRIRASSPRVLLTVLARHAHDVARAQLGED
Sequence of Inadl_2, Q8NI35 (Q8NI35 238-335): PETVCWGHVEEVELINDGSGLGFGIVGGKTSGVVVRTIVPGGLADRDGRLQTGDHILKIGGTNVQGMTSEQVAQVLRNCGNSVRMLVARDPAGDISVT
Sequence of SCRIB_2, Q14160 (Q14160 857-960): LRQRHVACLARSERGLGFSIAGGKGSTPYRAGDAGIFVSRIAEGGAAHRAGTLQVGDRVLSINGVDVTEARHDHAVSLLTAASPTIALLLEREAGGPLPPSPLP

For RTRQRNETQV [HPV51-E6, P26554], the pKd (FRMPD2_1, Q68DX3; [1]) was “below the threshold”, the pKd (NHERF4_4, Q86UT5; [1]) was “below the threshold” and the pKd (GRIP1_7, Q9Y3R0; [1]) was “below the threshold”. For the same binder, the pKd (SCRIB_2, Q14160; [1]) was 4.39, the pKd (GOPC, Q9HD26; [1]) was 3.72 and the pKd (Inadl_8, Q8NI35; [1]) was “below the threshold”. For the same binder, the pKd (DLG4_3, P78352; [1]) was 4.75, the pKd (DLG4_2, P78352; [1]) was 4.99 and the pKd (SCRIB_1, Q14160; [1]) was 4.56. The pKd (DLG4_1, P78352; [1]) was 4.9, the pKd (HTRA4, P83105; [1]) was “below the threshold” and the pKd (GORASP2, Q9H8Y8; [1]) was 4.65. The pKd (DLG2_2, Q15700; [1]) was 4.97, the pKd (NHERF3_1, Q5T2W1; [1]) was 4.17 and the pKd (DFNB31_3, Q9P202; [1]) was “below the threshold”. The pKd (SNX27, Q96L92; [1]) was 4.85, the pKd (DLG3_3, Q92796; [1]) was 4.91 and the pKd (DLG1_3, Q12959; [1]) was 4.54. The pKd (NHERF4_1, Q86UT5-2; [1]) was “below the threshold”, the pKd (MAGI2_5, Q86UL8; [1]) was 4.12 and the pKd (FRMPD4, Q14CM0; [1]) was “below the threshold”. For the same binder, the pKd (TJP3_3, O95049; [1]) was “below the threshold”, the pKd (LIMK2, P53671; [1]) was “below the threshold” and the pKd (LNX1_3, Q8TBB1; [1]) was “below the threshold”. For the same binder, the pKd (Inadl_2, Q8NI35; [1]) was “below the threshold”, the pKd (PDZD2_2, O15018; [1]) was 3.58 and the pKd (MAGI2_3, Q86UL8; [1]) was 4.02. For the same binder, the pKd (APBA2_1, Q99767; [1]) was “below the threshold”, the pKd (LNX1_1, Q8TBB1; [1]) was “below the threshold” and the pKd (GRIP2_3, Q9C0E4; [1]) was “below the threshold”. It also gave a pKd (MAST2, Q6P0Q8; [1]) of 5.27.

With QGRWDHETIV [TMEM215, Q68D42] the pKd (FRMPD2_1, Q68DX3; [2]) was “below the threshold”, the pKd (NHERF4_4, Q86UT5; [2]) was “below the threshold” and the pKd (GRIP1_7, Q9Y3R0; [2]) was 3.51. It also gave a pKd (SCRIB_2, Q14160; [2]) of 4.08, a pKd (GOPC, Q9HD26; [2]) of 3.99 and a pKd (Inadl_8, Q8NI35; [2]) of 3.65. For the same binder, the pKd (DLG4_3, P78352; [2]) was 3.64, the pKd (DLG4_2, P78352; [2]) was 4.66 and the pKd (SCRIB_1, Q14160; [2]) was 4.11. The pKd (DLG4_1, P78352; [2]) was 4.68, the pKd (HTRA4, P83105; [2]) was 3.53 and the pKd (GORASP2, Q9H8Y8; [2]) was 4.3. For the same binder, the pKd (DLG2_2, Q15700; [2]) was 4.07, the pKd (NHERF3_1, Q5T2W1; [2]) was 4.07 and the pKd (DFNB31_3, Q9P202; [2]) was “below the threshold”. The pKd (SNX27, Q96L92; [2]) was 5.38, the pKd (DLG3_3, Q92796; [2]) was 3.87 and the pKd (DLG1_3, Q12959; [2]) was 3.68. For the same binder, the pKd (NHERF4_1, Q86UT5-2; [2]) was “below the threshold”, the pKd (MAGI2_5, Q86UL8; [2]) was 4.44 and the pKd (FRMPD4, Q14CM0; [2]) was 3.6. For the same binder, the pKd (TJP3_3, O95049; [2]) was 3.62, the pKd (LIMK2, P53671; [2]) was “below the threshold” and the pKd (LNX1_3, Q8TBB1; [2]) was “below the threshold”. It also gave a pKd (Inadl_2, Q8NI35; [2]) of 4.22, a pKd (PDZD2_2, O15018; [2]) of 4.69 and a pKd (MAGI2_3, Q86UL8; [2]) of 3.77. The pKd (APBA2_1, Q99767; [2]) was “below the threshold”, the pKd (LNX1_1, Q8TBB1; [2]) was 4.17 and the pKd (GRIP2_3, Q9C0E4; [2]) was “below the threshold”. The pKd (MAST2, Q6P0Q8; [2]) was 4.86.

In the case of EEPEERHTEL [CES2, O00748], the pKd (FRMPD2_1, Q68DX3; [3]) is reported as “below the threshold”, the pKd (NHERF4_4, Q86UT5; [3]) is reported as “below the threshold” and the pKd (GRIP1_7, Q9Y3R0; [3]) is reported as “below the threshold”. The pKd (SCRIB_2, Q14160; [3]) was 3.79, the pKd (GOPC, Q9HD26; [3]) was “below the threshold” and the pKd (Inadl_8, Q8NI35; [3]) was “below the threshold”. For the same binder, the pKd (DLG4_3, P78352; [3]) was “below the threshold”, the pKd (DLG4_2, P78352; [3]) was 4 and the pKd (SCRIB_1, Q14160; [3]) was 4.21. The pKd (DLG4_1, P78352; [3]) was “below the threshold”, the pKd (HTRA4, P83105; [3]) was “below the threshold” and the pKd (GORASP2, Q9H8Y8; [3]) was “below the threshold”. For the same binder, the pKd (DLG2_2, Q15700; [3]) was 3.86, the pKd (NHERF3_1, Q5T2W1; [3]) was 4.72 and the pKd (DFNB31_3, Q9P202; [3]) was 3.86. The pKd (SNX27, Q96L92; [3]) was 4.74, the pKd (DLG3_3, Q92796; [3]) was “below the threshold” and the pKd (DLG1_3, Q12959; [3]) was 3.52. It also gave a pKd (NHERF4_1, Q86UT5-2; [3]) of 4.09, a pKd (MAGI2_5, Q86UL8; [3]) of 4.4 and a pKd (FRMPD4, Q14CM0; [3]) of 4.04. The pKd (TJP3_3, O95049; [3]) was “below the threshold”, the pKd (LIMK2, P53671; [3]) was “below the threshold” and the pKd (LNX1_3, Q8TBB1; [3]) was “below the threshold”. The pKd (Inadl_2, Q8NI35; [3]) was “below the threshold”, the pKd (PDZD2_2, O15018; [3]) was 5.04 and the pKd (MAGI2_3, Q86UL8; [3]) was “below the threshold”. The pKd (APBA2_1, Q99767; [3]) was “below the threshold”, the pKd (LNX1_1, Q8TBB1; [3]) was 3.8 and the pKd (GRIP2_3, Q9C0E4; [3]) was “below the threshold”. For the same binder, the pKd (MAST2, Q6P0Q8; [3]) was 5.44.
